Measured values: patent US20160333075A1 (MAB EXPLORATIONS SDN BHD, published 2016)

Tests used:
Experiment in all cases: cell-based or functional assay
[1] = biological target: enterovirus 71 (EV71) virions (enterovirus 71)
[2] = biological target: enterovirus 71 (EV71) virions (enterovirus 71); remark: listed apart in the source
[3] = biological target: enterovirus 71 (EV71) virions (enterovirus 71); remark: listed apart in the source

Binder	IC50 in ATCC cells relative to the parental antibody [1]	IC50 in NIBSC cells relative to the parental mouse antibody [1]	Inhibitory concentration 50 (IC50), Vero ATCC [2]	Inhibitory concentration 50 (IC50), Vero NIBSC [2]	end point PRNT50, Vero ATCC [2]	end point PRNT50, Vero NIBSC [2]	Average IC50 [3]	IC50 (#1) [3]	IC50 (#2) [3]
Recombinant chimeric E18 VL + VH (antibody, V domains shown) VH: QIQLVQSGPELKKPGETVKISCKASGYTFTRYGMSWVKQAPGKGLKWMGWINTYSGVPTYADDFKGRFAFSLETSASTAYLQINNLKNEDTATYFCARRGYSNYYPMDFWGQGTSVTVSS VL: DIKMTQSPSSMYASLGERVTITCKASQDIKSYLSWYQQKPWKSPKTLIYYAKNLADGVPSRFSGSGFGQDYSLTISSLESDDTATYYCLQHGESPYTFGSGTKLEIKR	~2 fold	~5 fold	0.585 µg/mL	0.966 µg/mL	625 ng/mL	2500 ng/mL			
Recombinant chimeric E20 VL + VH (antibody, V domains shown) VH: EVQLVESGGGLVKPGGSLKLSCAASGFTFNIYAMSWVRQTPEKRLEWVATISDGGSYTYYPDNVKGRFTISRDNAKNNLYLQMSHLKSEDTAMYYCVRDRGNYYSRAFPYAYWGQGTLVTVSA VL: SIVMTQTPKFLPVSAGDRVTMTCKASQSVGNNVAWYQQKSGQSPKLLIYYASNRYTGVPDRFTGSGSGTDFTFTISSVQVEDLAVYFCQQHYSSPPTFGAGTKLELK			3.18 µg/mL		5000 ng/mL	> 10000 ng/mL			
hVL1 + hVH1 E19 (antibody, V domains shown) VH: DVQLQESGPGLVKPSQTLSLTCTVSGYSITSGFYLNWIRQHPCKGLEWIGYINYGGSINYNPSLKSRVTISRDTSKNQFSLKLSSVTAADTAVYYCATMPNSWYFDVWGRGTLVTVSS VL: not shown							0.0892 µg/mL	0.0565 µg/mL	0.122 µg/mL
hVL1 + hVH2 E19 (antibody, V domains shown) VH: DVQLQESGPGLVKPSQTLSLTCTVSGYSITSGFYLNWIRQHPGKKLEWIGYINYGGSINYNPSLKSRVTISRDTSKNQFSLKLSSVTAADTAVYYCATMPNSWYFDVWGTGTLVTVSS VL: not shown							0.119 µg/mL	0.118 µg/mL	0.121 µg/mL
hVL1 + hVH3 E19 (antibody, V domains shown) VH: EVQLVESGPGLVKPSQTLSLTCTVSGYSITSGFYLNWVRQHPGKKLEWIGYINYGGSINYNPSLKSRVSISRDTSKNQFSLKLTSVTAADTAVYYCATMPNSWYFDVWGTGTLVTVSS VL: not shown							0.0896 µg/mL	0.0965 µg/mL	0.0826 µg/mL
